{"source": "paper doi:10.1101/466938v1", "proteins": {"B1": {"name": "hTMPK (Homo sapiens) (protein)", "chain": "MAARRGALIVLEGVDRAGKSTQSRKLVEALCAAGHRAELLRFPERSTEIGKLLSSYLQKKSDVEDHSVHLLFSANRWEQVPLIKEKLSQGVTLVVDRYAFSGVAFTGAKENFSLDWCKQPDVGLPKPDLVLFLQLQLADAAKRGAFGHERYENGAFQERALRCFHQLMKDTTLNWKMVDASKSIEAVHEDIRVLSEDAIRTATEKPLGELWK"}, "B2": {"name": "CaTMPK (Candida albicans SC5314) (protein)", "chain": "MARGQLILIEGLDRSGKSTQASILSTKLSPSKLIKFPDRSTPIGKLINEYLTNKSFTLSDQAAHLLFSANRWELSQQIQDLLNQGYFIILDRYIYSGIAYTLAKNDFHDETISQGKNKQQLNNIDWLLSPDKGLPKPDLTLFLTLDLEEISKRKGWGDERYELQQFQAKVKQCFLEILDTNKDPTIRIVDVGGKTIDQVTTQLWEIIETNKNHELINDSIQFIT"}}, "key": {"NADH-coupled assay [1]": {"substrate": "Cc1cn([C@H]2C[C@H](O)[C@@H](COP(=O)(O)O)O2)c(=O)[nH]c1=O", "experiment": "NADH-coupled assay", "format": "biochemical, Homo sapiens", "settings": "500 μM ATP, 100 mM Tris-HCl, 100 mM KCl, 10 mM MgCl2"}, "NADH-coupled assay [2]": {"substrate": "Cc1cn([C@H]2C[C@H](O)[C@@H](COP(=O)(O)O)O2)c(=O)[nH]c1=O", "experiment": "NADH-coupled assay", "format": "biochemical, Candida albicans", "settings": "500 μM ATP, 100 mM Tris-HCl, 100 mM KCl, 10 mM MgCl2"}}, "data": [{"protein": "B1", "values": [{"measurement": "Km", "setting": "NADH-coupled assay [1]", "result": "16.3 ± 2.3", "unit": "µM"}, {"measurement": "kcat", "setting": "NADH-coupled assay [1]", "result": "0.352 ± 0.01", "unit": "s⁻¹"}]}, {"protein": "B2", "values": [{"measurement": "Km", "setting": "NADH-coupled assay [2]", "result": "24.1 ± 3.2", "unit": "µM"}, {"measurement": "kcat", "setting": "NADH-coupled assay [2]", "result": "5.347 ± 0.118", "unit": "s⁻¹"}]}]}
